How the values were obtained:
[1] = target: ITGA2 protein on the surface of human tumor cells (human) (UniProt P17301); test: cell-based or functional assay
[2] = test system: Human epidermal cancer cells A431; test: ADC cancer cell killing assay (Cell-Titer-Glo 2.0); format: cell-based; conditions: 5 days at 37°C, 3-fold gradient, 11 points
Method: Human epidermal cancer cells A431 available from Procell Life Science&Technology Co.,Ltd. (Wuhan) were seeded into a 96-well plate at 2500 cells/well. It was then incubated in a 5% CO2 incubator overnight at 37°C. Half of the medium was removed from the cell plate on the next day. A 2x hIgG1-vcMMAE (negative control ADC, provided by ChemPartner), a control antibody and the ADC prepared as the above were prepared with a complete culture medium, and then diluted at a 3-fold gradient with 11 specific concentration points in total. Serial dilutions of the above molecules were added to the appropriate wells, and it was then incubated in a 5% CO2 incubator for 5 days at 37°C. After the incubation, 100 uL of Cell-Titer-Glo 2.0 reagent was added to the 96-well plate. It was then well mixed on a plate shaker for 2 minutes, and finally equilibrated at room temperature for 10 minutes. Readings were taken using a microplate reader. Finally, IC50 was used to compare the biological activity of the ADC against each cell line.

Chain of ITGA2 protein on the surface of human tumor cells (human) (P17301 30-1181): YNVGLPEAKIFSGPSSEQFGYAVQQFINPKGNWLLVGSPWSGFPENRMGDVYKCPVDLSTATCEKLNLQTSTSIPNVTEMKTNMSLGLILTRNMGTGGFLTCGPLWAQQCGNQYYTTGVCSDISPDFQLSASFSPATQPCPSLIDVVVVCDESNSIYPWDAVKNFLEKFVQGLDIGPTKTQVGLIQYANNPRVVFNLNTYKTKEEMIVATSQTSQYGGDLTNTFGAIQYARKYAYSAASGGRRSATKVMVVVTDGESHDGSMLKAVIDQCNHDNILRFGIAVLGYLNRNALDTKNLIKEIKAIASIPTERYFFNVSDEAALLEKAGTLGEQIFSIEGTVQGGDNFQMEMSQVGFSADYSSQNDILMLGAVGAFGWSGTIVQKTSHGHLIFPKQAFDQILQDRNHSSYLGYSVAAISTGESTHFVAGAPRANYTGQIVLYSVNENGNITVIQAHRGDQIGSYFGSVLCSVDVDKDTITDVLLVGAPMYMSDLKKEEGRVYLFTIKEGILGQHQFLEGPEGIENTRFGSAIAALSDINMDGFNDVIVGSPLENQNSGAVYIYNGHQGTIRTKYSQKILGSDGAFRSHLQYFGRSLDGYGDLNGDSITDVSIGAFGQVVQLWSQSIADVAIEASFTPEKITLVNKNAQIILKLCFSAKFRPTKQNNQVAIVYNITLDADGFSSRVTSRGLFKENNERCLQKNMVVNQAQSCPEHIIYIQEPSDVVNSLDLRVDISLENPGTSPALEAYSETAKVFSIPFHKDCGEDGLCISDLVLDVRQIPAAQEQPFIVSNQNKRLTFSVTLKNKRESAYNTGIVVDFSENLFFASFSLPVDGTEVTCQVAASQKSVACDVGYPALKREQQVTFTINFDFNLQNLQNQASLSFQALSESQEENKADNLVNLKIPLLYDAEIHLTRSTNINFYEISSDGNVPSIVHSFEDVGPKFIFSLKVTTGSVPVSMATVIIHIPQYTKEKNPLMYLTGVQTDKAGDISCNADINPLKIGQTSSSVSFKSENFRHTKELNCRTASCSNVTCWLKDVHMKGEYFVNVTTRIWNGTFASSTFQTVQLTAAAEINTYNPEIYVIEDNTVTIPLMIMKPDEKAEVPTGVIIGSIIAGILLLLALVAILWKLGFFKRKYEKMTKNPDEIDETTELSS

Row | Molecule | A431 cell killing IC50 [1] [nM] | IC50 [2] [nM] | IC50 ([2]; listed as Vatelizumab-ve-MMAE) [nM]
1 | Vatelizumab-vc-MMAE (antibody) | 0.054 | – | –
2 | Vatelizumab-vc-MMAE: Antibody-drug conjugate of the positive control antibody Vatelizumab with vc-MMAE linker-payload (conjugate, chains of the INN, looked up, vc-MMAE linker-payload) VH: QVQLQESGPGLVKPSETLSLTCTVSGFSLTNYGIHWIRQPPGKGLEWLGVIWARGFTNYNSALMSRLTISKDNSKNQVSLKLSSVTAADTAVYYCARANDGVYYAMDYWGQGTLVTVSS VL: DFVMTQSPAFLSVTPGEKVTITCSAQSSVNYIHWYQQKPDQAPKKLIYDTSKLASGVPSRFSGSGSGTDYTFTISSLEAEDAATYYCQQWTTNPLTFGQGTKVEIK | – | 0.054 | < 0.1
